A short description of this series: soluble on expression in E. coli; label from the status in PepcDB or PDB records.
On to “MDRADLRIAVLMGTKDGAPFIDEQLQSLLAQSHPLIDLWISDDGSVDGTVPIIEAWKSRWTKGRVTLVQGPREGFAANFRSMILDRRIDADFYAFSDQDDVWEPDRLESAVQWMQAFGAEPPLMFCSRTATMTETGSLAGHSPLFRRPPSFRNALVQSIAGGNTILLNRAARDLLARASARTGFVSHDWWAYLVVTGAGGVVHYDPRPLVRYRQHAANLVGANVSWAARVSRLGRLFKGEFADWTDLNLAGLAVNRDLLTPDAATCLDLFASGRQGSLFQRLRTLLVSGVYRQTLAGTLGLYLAFVLGRILEHHHHHH”, for which the “soluble on expression in E. coli” value was “not soluble”.

As to “MDRFEIKEEFLLNGQSFKILSGAIHYFRVDPSDWHHSLYNLKALGFNTVETYVPWNLHEPQKGTFHFEGILDLERFLKLAQELGLYAIVRPSPYICAEWEFGGFPAWLLNEPGRMRSNNPTYLKHVAEYYDVLMEKIVPHQLANGGNILMIQIENEYGSFGEEKAYLRAIRDLMIARGVTAPFFTSDGPWRATLRAGSMIEDDILVTGNFGSKAKENFGMMQAFFEEHGKKWPLMCMEFWDGWFNRWKEPIIKRDPQELAESVREALALGSINLYMFHGGTNFGFMNGCSARGTIDLPQITSYDYDAPLDEQGNPTEKYFALQKMLHEEYPALPQAEPLVKESFAQTAIPLTNKVSLFATLETISQPVVSVYPQTMEQLGQNTGYLLYRTSIEKDAAEEKLRVIDGRDRLQLFVNQVHQATQYQTEIGEDIYVTLPQENNQIDILMENMGRVNYGHKLFADTQKKGIRTGVMADLHFMTQWQQYCLPMTSCEQVDYSREWQPDQPSFYQYHVELAEVKDTFIDVSKFGKGIVFVNQTNLGRFWNVGPTLSLYIPKGLLKEGQNEIVIFETEGTYQPEIQLVKEPLYKEMKEGLQ”, the “soluble on expression in E. coli” value is “not soluble”.

With “MDRRQRFEKYDWLISKTQSILKNYECPESCNASCCRHHIIDFRRKEYEKILKNVDKESANILKSNAVKSELEGCYKAIVGQCPLLTNSKCRIYNNRPEACRNFPFVIFPDPEAGFGLTLLLCPISVNIIQDYAQWYKSVNLTMYNQLTAVYEQYKNIGENNDFCIQMKEQNLDSFIEFLEKKLEHHHHHH”, the “soluble on expression in E. coli” value is “not soluble”. As to “MDSAREVSDGRLTVEGFSVASRAFADKWKIHNQSFPPWSWVPLINRTLLVSKKEEGYLSLEKIIILSSLEEEIPEDESLNVATDCLEKEETVDHTILVPTMENEAHYYDFHIVYSASYKVPVLYFRGYCSGGEPLALDVIKKDVPSCSVSLLLESKWTFITQEEHPYLNRPWFKLHPCGTEDWIKLLSQSSSSSGCQMPIVLYLVSWFSVVGQVVGLRIPLEMLN”, the “soluble on expression in E. coli” value was “soluble”. The entry for “MDSDEEILSSYSSLTVTSRNETTISTRDSASNAMPVVVVDDEIFEDASSDISILTKRQESSSIHLDRSKMRKAVHQDLCTHDQKILEPLFLRKCEPHRVRQGTAPPNVIPIQKVENVEANKKFTGHSALLVSLNTPTYCVRYLAANAVHTPKNVLIFASPLSYVRFVARPDPQRTNQSVFEDPSETVRLMMAPDVAKVAQKMLPKWQTVTFTLAFGKHVAVKYRIIEVRKQPVTYVKAKADRVKRVSTSTLYRTEPVQRVDYWRSFKSNELKLSTVEKNDPQIVKRVFLEQQSLNWDPSGVIGTEKEHHHKTIVKSKKIKTGEELNLMWQRTDFH” is “not soluble”; for “MDSKKILYISQEIFPYLPETDISVVSRKLPQTIQERGNEVRIFMPRYGIINERRNQLHEVIRLSGINMIINDNDHPLIIKVASIQSARMQVYFIDNDDFFKRKTMYDIKPKQENDNDERAIFFVRGALEAIKKLRWIPDVIHCHGWFTALAALYLKKMYADDPCLQKAKVVYSVYDDAGQGVIPETLFGKLGFDKITPDDLSVMEQSSDYLALNRLAIRYADGVIQGSETIAPELTDYISSLEGKAFLPYQGKEDYEEAFDNFYSDLLTANLEHHHHHH” it is “not soluble”. The entry for “MDSRVWLPLIGAHLLPRDISVITQMIANNNNTSISRSSTNSSKPEEKNSKKFLIERFLDDDPSPPASILSPSPKAAIPSPIINPAVEFVNGGYGVKNPLAPLISSFETTSIPCSTVSPSSLISSSKDEFQDSLTCHICGKKFGLQRLLNRHIKCHSDLKRYLCTFCGKGFNDTFDLKRHTRTHTGVRPYKCEQCEKSFTQRCSLESHLRKVHGVTHQYAYKERRSKVFVCEDCGYTDEKFEVYLSHIKVVHPFSAAYLRFTQLQKKNSSMKPEQLSKISL” is “not soluble”; for “MDTDAIRSEIFGQLARPDNSGIPKYRRLSNILVEAIRRGVWQPGDRLPAEEQLTEMTPFSLGTVQRALRALTDEGLVIRMQGHGNFVADQQRQMADPWHCRFLDDESDGIVPIYSKAVQRAVVTPSETGPWQRYLHSGSVMRLDRIINVNDEFRIFSRFYADRELLQPLWHVPLEELDGANFKDIIMRQVGLPITEIDRSVRIRRIDAQAARLIGVAPEATVLFMQAVARAGRDACIYYQEFYIPETGRALQLPEQRPRVHGR” it is “not soluble”; for “MDTRTRHLKVSNCPNNSYALANVAAVSPNDFPNNIYIIIDNLFVFTTRHSNDIPPGTIGFNGNQRTWGGWSLNQDVQAKAFDLFKYSGKQSYLGSIDIDISFRARGKAVSTVFDQDELAKQFVRCYESQIFSPTQYLIMEFQGHFFDLKIRNVQAIDLGDIEPTSAVATGIETKGILTKQTQINFFKGR” it is “soluble”. For “MDTSSFETDLSLFKYDDLEALPDEYRELTPTARTERIEAARAELGDDVVVLGHNYQRREIVEHADFVGDSYQLSKEAANADADYVIFGGVTFMAESADIITDDSQSVILPSMEASCPMAGMAEALQVDAAWADITAAAPDETIIPITYMNSYADLKAFCAEQGGLVCTSSNAHRAFEWAFERGDKVLFLPDKHLGENTAHRLGMADATVEWDPWAAEGKTAEEVADADIVLWDGYCQVHERFTPEHVAEVRADHEDANVVVHPECRREVVEAADVVGSTATITETVADADPGETWAIGTEIHLANHLQRWHPEVNVVPLCGDACMDCNAMRQIDPNYLAWVLEELVEGRERNVIEVDSEEAELAQVGLDRMLELLEHHHHHH”, the “soluble on expression in E. coli” value is “not soluble”.

For “MDTTPEPFTGKMGSYILIAPDGDAAMIDSGPKTSWERVREELQSMGVRLRYVILTHIHLDHASAAGSIVRSLDTVEAVYVHPRGARHMADPERLWQASKQFLGDYADFFGKPEPVPEGKIVVPEDGEVLELPGGVKLHVIYTPGHASHHMSFYLPQEGVMFTGDSAGVSLKDDDGTLVEFPTTPPPFKPVEYINSLDAMARFKPEKLAFAHYGMRSGGMEYLRWHREDILRWVREAVEYVSRGGGDAEELMRLLADKLENAGKAYRARNPIISEFMYRGTVLGLMDTAVRGEWKRLHL”, the “soluble on expression in E. coli” value was “soluble”.

Consider “MDTTYGPPAPALSGLTLGIREYSLFQAVLLVIDRLRDAHPHLSEDDLYDQLEFQANPSLGFPSSDVSRVEFFHEHGQMRARMQFNLIGLVGSGSPLPAFYGEQALGDSEDGNPTRNFLDLFHHRLQRLMLPIWKKYRYRASFESGALDPFSAQLFALIGLGGEEIRRAQELNWKRLLPYLGLLSLRAHSAALIEAVLRYYFKHAELTIEQCIERRVEILDEQRNRLGSANSMLGEDLVLGDHVRDRSGKFRIHIRELDWQRFHEFLPIGFGYQPLCALVRFTLRDPLDYDIRLVLRQEEIRELRIGEQNACRLGWTSWLGREKADGVVTLGSKIH”, for which the “soluble on expression in E. coli” value was “not soluble”. For “MDTVTKLSIIIPAWNEETGIARTLETLLALTAGRGDTEIIVSVSGNDRTKAIARTFPVVVCHSEKGRAVQMNAGAKLATGSILYFLHADTTPPPSFCDDIFSAIERGARAGCFRMTFDDPDWLMQLYGWFTQFPLPVCRGGDQSLFITKELFGQIGGFDERLQIMEDIEIIDRLQRHAGFHILDSTVTTSARKYHTNGTVRLQAIFGTIHLMYALGFSQKNIVAFYRDSIRLEHHHHHH”, the “soluble on expression in E. coli” value was “not soluble”. With “MDVADSTSETPPVFDHDNLALAAQTNLLQFYLTHLASTLVPPMKLDMRDSMTPSFSQTESPNSETDDSTSAANKVLFSILGTPTTDSTSNAVSKSSSKLCSVCGDKSTGLHYGAATCEGCKGFFKRSVQNKKVYHCSQDNCCEIDKQNRNRCQSCRFRKCISKGMLTEAVREDRMPGGRNGNSIYSNYKQRRSIIRKTKDYVEEQERRPFQSLPSGKKLIKELVEMDCLDRLINLKGLRINPSANCDIAPACKRLTRIGDEIVEQLVEWTKTLPFFDELPVEAHTHLLTQRWAELVLLSAGYYACSVFTPDSPDTTEMIDETDEISFTNPQVNLRLLQNRLSLVLGKEIPLEHVAKEAGPLVTRFTTLLHSFSNLKVSPEAYVCIKAITLLHLSADSTLDRSIIDKVNTLQDHFVKTLQIHLHQPGEDAQTTSLAQILDWLPDLRNASSVLLHSKMFYVPFLLCKNPRRLVFDE” the entry was “not soluble”. With “MDVDLAAPMSESEKLLYRSNLLGSDKRITNYGGGNTSAKVIETDPLTGEPAEVLWVKGSGGDVGSIRMDGFATLYMDKLNALRGIYRGGEHEDEMVAFLRHCTFNLNPRAASIDTPLHAYVPAKHVDHMHPDAIIAIAAAKDSKKLTQEIFGDRIGWLPWKRPGYELGLWLSDFCEKNPDAKGVVLESHGLFTWADDARECYERTLEIIQTAMDWFAEQTAGKPAFGGALEHHHHHH”, the “soluble on expression in E. coli” value is on record as “not soluble”.

Regarding “MDVGKLESFIVEKMAERKVPGISISIIKDGDVVYAKGFGYRNVEARLPSTPETIYGIGSITKSFTALAIMKLVEEGGLSLDDPVEKFVNIKLRPFGEPVTVHHLLTHSSGIPSLGYAEAFIDGMVGGDNWLPVSTPEETIAFARDMEKWAVAKPGERFFYLNTGYVLLGKIIEKVSGVSYEEYIKKKILEPLGMNRSYFFKEEVEKDKDVAMGYILDKEGRLVPQPFPYGITADGGLLSSVLDLAKYLKMYIERDESIVSKEYIEKMETSYIKVPWEIFGGEGYGYGLIIYPNFLGEKLVGHSGSVGMYTGYIGYIPEKKIGVAVLENSSGYPPSYIAMYALALLLGKNPEKELPFIYRERILKKVEGRYMGYKGTIKFEVKVDGDVVYLRALGRAFTYTIPLFPEVLEEDFIKCYTLSNGRKMYAEFYIKDNKVDLIFERYRLIKS”, the “soluble on expression in E. coli” value is “soluble”. Regarding “MDVLIIGGGEAGLVAGCRALTMGQKVILVEKNGYLGGATILNGSNVVGTGSDVAAQIFDNNHDTPEMLAQDVARESLETNYPALTDLMVHNIGPAIDFISKFADLHYQKAQTQTPEHSINRQIELPSASSYEFIQKVSKAFAAAGGQIMLDTRVEKLMLDNDKKLRGVIAAQKDQTVNIKARSVVLAAGGHGANQKMRGTESEGIDYYGPMTSTGDAYQFNGDLDLQTHDLGWYKLYPHGVEVEPGVAKLTTYASKQATDMGAIYVNSKGDRIVNESNVYTTFRNAILKQADKVAYLVMDERTWKKVYDLLILHDFTPEEIKSFFENKGKRPVFVKGSLESAAEQAGIVVDELVQTVKNYQGYVQDGHDHDFGRDPKYLHQFEGETFYIIEQRDRFATTLGGYSVDADNLQLVTTKNAPVANYFGAGEIIGGANGHDSMPSMMNTWGISSGYVAGAAASENAQRQATAGAAALEHHHHHH”, the “soluble on expression in E. coli” value is given as “not soluble”. With “MDVLSLLRVFGRRRRGLRDLEVSEPEFGDRPEYLEEYVRRFTSETGREEPELVEKIPSSMKNAREFNVIYPVGFGIFIHAYNDPLSESGYNKYVVVEPPRPPEDLVRLIDYKIALVLSEEDAPRSSEEKKRILLAALDKVVAVTSSERIAGGNGGNGSWQYAVKRGRIVIPERYYNYLKYHFIREKVGVGPLEPFLRDPYLEDISCNGVGPVYVVHKMFRSLESSVRFETEGELDDFILKLGEKIGKPISHARPVVDATLPDGSRINIVFGSDVSLKGSNFTIRKVSKIPISVTQLIKWGTFDARIAAYMWMMLEEGMSVFICGETASGKTTSLNAISVFIRPDAKIVTIEDTAEVVLPHPNWTRELTRNTGKPETSVTMFDLLRAALRQRPNYIIVGEIRGAEGNIAFQAMQTGHPVMATFHAANLSRLLQRLTNHPINVPKTNIDSLNIAWFQSAVHVKGFPARRVLEIDEIIGYDPSSGAIAAVPSFTWDPVRDKFIFSGRGASYLLEEKIATMKGIPRRELSIIYEELELRRRFLQTLVDKNILDYFDVYKAIVRAYNIGVEEALKRLERDELLS” the entry was “soluble”.

The record behind these values is the DeepSol protein solubility set.
